Measured values reported in the supplement of paper PMC9170038.

Test system: K4 kissing-loop RNA reporter
Assay: apparent KD of K4 kissing-loop reporter; higher = weaker reporter binding
Conditions: Eterna round: R107
Method: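 RNA-MaP round R107: designed RNA switches with theophylline, tryptophan, arginine or FMN aptamers are transcribed on-chip within common flanks. They are titrated with a labelled K4 kissing-loop RNA reporter in RNA-MaP buffer (100 mM Tris pH 7.5, 80 mM KCl, 4 mM MgCl2), without ligand or with the indicated ligand. Median apparent KD per design.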

[1] = input ligand: theophylline 20 uM
[2] = input ligand: tryptophan 2.4 mM
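Note: bound reporter read as fluorescence of individual clusters on recovered sequencing chips by microscopy, with normalized cluster intensities fitted with a binding model.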

Row | Sequence | apparent KD of K4 kissing-loop reporter (input ligand: FMN 200 uM) [nM] | apparent KD of K4 kissing-loop reporter (input ligand: arginine 13.2 mM) [nM] | apparent KD of K4 kissing-loop reporter (input ligand: none) [nM] | apparent KD of K4 kissing-loop reporter [1] [nM] | apparent KD of K4 kissing-loop reporter [2] [nM]
1 | GCCCACAUUAGUGAUACCAGUGGGCACUCACCAGUUCAGUGAUGUUGGACGCAGUGUGGUCACCCUUGGCAGCACCGAUGCCCUU [theeternabot_sameState_KL_Theo_B_32] | 129 | 128 | 122 | 122 | 129
2 | GCCCUUCAGGUCGGAGUGAUGUUCCAAUGGAAGGAUAUCCGGGCUCGGAGAAGGUCCAAUUGUGUCUUGUUAAGGUGCUCACUAC [theeternabot_sameState_KL_FMN_A_46] | 251 | 221 | 215 | 203 | 223
3 | GCCGUACGCACGGAUACCAGCACUCGGUGAGUGAUGUUCACGGUGUGGUAUUCACCGGGCUGCCCUUGGCAGCCGUGCGUACGGC | 375 | 301 | 343 | 1280 | 283
4 | GCCGUACGCAUGGAUACCAGAGUCUUUCUAGUGCCUCUGGAGUACAGUGAUGUUGUGCCACUCCCUUGGCAGCCAUGCGUACGGC | 1080 | 647 | 906 | 671 | 768
5 | GCCGUACGCAUGGAUACCAGAUGGCACUAUAAUCUCCCAGAGUGAUGUUCUGGCCUGCCUAUCCCUUGGCAGCCAUGCGUACGGC | 686 | 514 | 670 | 387 | 585
6 | GCCGUACGCAUGGAUACCAGCACACAACGAAGUGAUGUUUCGUGCGUAGAUUUGUGCUACUGCCCUUGGCAGCCAUGCGUACGGC | 86.6 | 69 | 82.2 | 69.3 | 78.6
7 | GCCGUACGCAUGGAUACCAGCUAGACCGAGUGAUGUUCAGGUCUGAAUGCCGGUAUCAAGAGCCCUUGGCAGCCAUGCGUACGGC | 382 | 265 | 301 | 329 | 292
8 | GCCGUACGCAUGGAUACCAGCUAUUAGAGUGAUGUUCUAUGGCCCUGCCAAUGGAGCUGUAGCCCUUGGCAGCCAUGCGUACGGC | 112 | 95.2 | 109 | 105 | 104
9 | GCCGUACGCAUGGAUACCAGUCUUUCACGACUGGACAUGGAGUGAUGUUUCGUGAUGCUAGACCCUUGGCAGCCAUGCGUACGGC | 255 | 198 | 242 | 329 | 210
10 | GCCGUAGAUGGAAGGAGCGUGGUUAAUGUAAGUGAUGUUUACGAGGUUAACAAUUAACCGCCACAGGUAGGUCGCCAUCUACGGC | 72.8 | 62.8 | 77.5 | 58.6 | 73.8
11 | GCCGUAGAUUGAAGGAGCGACAUAAACGAUGUUCUGGUAGUGAUGUUACCUUAGCAGGCAUGUCAGGUAGGUCGCAAUCUACGGC | 238 | 133 | 209 | 162 | 176
12 | GCCGUAGAUUGAAGGAGCGAGGCUAAUUAAAGACCGAGUGAUGUUCGGGAGCGUGAAACUCCUCAGGUAGGUCGCAAUCUACGGC | 217 | 180 | 204 | 186 | 180
13 | GCCGUAGAUUGAAGGAGCGGACAGAUACGGGUAUCCAGUGAUGUUGGAAGGUAGCUACUAGUCCAGGUAGGUCGCAAUCUACGGC | 283 | 111 | 304 | 286 | 164
14 | GCCGUAGAUUGAAGGAGCGGCUUCAUCAAAUCUCUAGCCCACACCAGUGAUGUUGGUGUUAGCCAGGUAGGUCGCAAUCUACGGC | 421 | 313 | 450 | 430 | 411
15 | GCCGUAGAUUGAAGGAGCGGUAUGGGCGGUGGCUGAGUGAUGUUCAGGAAAAGUGGCUUCUACCAGGUAGGUCGCAAUCUACGGC | 108 | 103 | 127 | 146 | 113
16 | GCCUGGGCACGAAGGAGCGCCGUGACAGGUUACUGCCUUGGGCAGUGAUGUUGCUCAAUCUGGCAGGUAGGUCGCGUGCCCAGGC | 162 | 162 | 161 | 159 | 168
17 | GCGCAUGUUAAAGGAUAUAGCAGGUGAUACAAGAAAGUGAGUGAUGUUUAUGUAGAUGAUGAUAUGUUAGAAGGUUAACAAAAGC [abcdefghijklmn] | 717 | 624 | 674 | 691 | 434
18 | GCGCGCGGCGGAGGAUAUAGCCGGUGGUCCGGGAAAGUGAGUGAUGUUCGCGGAGUUCUGGAUAUGUUAGAAGGCCGCCGCGCGC [qwertyuiopasdfghjklzxcvbnm] | 1010 | 857 | 1060 | 700 | 718
19 | GCGCGGCAGGCGGCCGCCACUCUGACGAGCCACAGUGAUGUUGUGGUCGGAGUAACGUCUUCAUAGAGGACCGGGUUUGUUGUUC [Same State Typtophan A GF 26] | 224 | 212 | 239 | 290 | 230
20 | GCGCGGGAGUGAUGUUCCAAGUGGUGUUAACGAGGACCGGUACGGCCGCCACUCGUUACGGCCGGGCCGUAGGAUAAACUGGCGC [Same State - Tryptophan A (Freestyle 15)] | 373 | 418 | 479 | 544 | 398
21 | GCGCGGGAGUGAUGUUCCAAGUGGUGUUAGCGAGGACCGGUACGGCCGCCACUCGUUACGGGCGGCCCGUAGGAUACACUGGCGC [Same State - Tryptophan A (Freestyle 18)] | 431 | 399 | 430 | 560 | 392
22 | GCGCGUCAUGUCAGCGGUGACACUGUCGAUACCAGCGCCGAAAGGCGCCCUUGGCAGCGACGUGCUGGAGUGAUGUUCCAGCGUC [#2 Exclusion - Theophylline A Attempt #24 (HarryS)] | 163 | 108 | 148 | 148 | 139
23 | GCGCGUCAUGUCAGCGGUGACUAUGUCGAUACCAGCGCCGCAAGGCGCCCUUGGCAGCGACGCGCUGGAGUGAUGUUCCAGCGUG [#2 Exclusion - Theophylline A Attempt #10 (HarryS)] | 148 | 118 | 140 | 144 | 124
